In US8765126B2, “Methods of treating complications and disorders associated with G-CSF administration” (priority 2011, dated 2014):
“Also recorded” adds a separate entry of the source. Read-outs that look alike come from different tables or passages of the source.

What was measured:
[1] = system: HECA-452-reactive glycans; test: Flow cytometry of cell surface HECA-452-reactive sialofucosylated glycans on myeloid cells; type: cell-based, human
Procedure: (§1) Flow cytometry. Cell surface expression of E-selectin ligands and MPO was determined by indirect single-color immunostaining with HECA-452 and anti-MPO (2C7) mAbs, respectively. Cells were incubated with primary antibodies and their matched isotype controls in PBS with 2% FBS for 20 min, on ice. After successive washes with PBS and 2% FBS cells were stained with FITC-conjugated secondary antibody for HECA-452 and PE-conjugated secondary antibody for MPO. Stained cells were then washed, resuspended in PBS, and analyzed using the Cytomics FC 500 MPL flow cytometer (Beckman Coulter, Miami, Fla.).
(§2) In vitro G-CSF treatment. Myeloid cells (10^6 cells/ml), isolated from different sources were cultured with RPMI 1640 medium (Mediatech, Inc, Manassas, Va.) with 10% FBS, 1% pen/strep and 10 ng/ml recombinant human G-CSF (Neupogen) from Amgen Mfg. Ltd., CA. Cells were maintained in culture for 72 h, at 37° C. and G-CSF aliquots were added after each 24 h period.
(§3) Neuraminidase and DMJ treatment. Cells were isolated from the buffy coat of bone marrow aspirates after centrifugal sedimentation and red blood cell lysis. […] After extensive washes, cells were divided in equal numbers and cultured in RPMI 1640 medium, for 48 h, with or without G-CSF treatment. In parallel, a subset of cells cultured with G-CSF was treated with 1 mM deoxymannojirimycin (DMJ). The effect(s) of G-CSF and DMJ were assessed by flow cytometry analysis of surface expression of HECA-452 determinants and of MPO.

membrane MPO = test: Flow cytometry of cell surface (membrane) MPO expression on myeloid cells; type: cell-based, human
Procedure: as §1, §2, §3

surface MPO = test: Detection of membrane MPO activity (surface biotinylation, streptavidin beads, OPD substrate); type: cell-based, human
Procedure: Detection of membrane MPO activity. Aliquots of NL and ML were surface biotinylated, lyesed and membrane proteins were precipitated with streptavidin-conjugated agarose beads. The beads were incubated with a chromogenic peroxidase substrate, o-Phenylenediamine dihydrochloride (OPD) (Sigma) and the activity of surface MPO was monitored spectrophotometrically.

[2] = system: mice with surgically-induced myocardial infarct; test: Surgically induced myocardial infarct, echocardiographic ejection fraction; type: in vivo; settings: 7 days post-MI, mice injected with neuraminidase-treated ML vs untreated ML
Description: Adult RAG-2/JAK-3 SCID mice were maintained on a standard mouse chow diet and water ad libitum, and housed in a temperature-controlled environment under an alternating 12-hour light/dark cycle. All animal handling procedures adhered strictly to the approved guidelines of the Institutional Animal Care and Use Committee. Mice paired by weight and sex were distributed in two groups: in one group experimental MI was induced by permanent left anterior descending artery (LAD) ligation, as previously described^67 and another group that underwent open thoracotomy without coronary ligation (sham operated). Within five hours following the surgery, mice from each group were injected via jugular vein either with PBS or different cell types: NL, ML or sialidase-treated ML (4×10^6 cells/mouse). The surgeon who performed the MI procedure and the jugular vein perfusions was blinded to the type of cells/[…] injected in each animal. Echocardiography was performed on all mice before surgery (baseline), at 3 days and 7 days following surgery using an 18 to 38 MHz linear-array transducer with a digital ultrasound system (Vevo 2100 Imaging System, VisualSonics, Toronto, Canada). Standard parasternal long- and short-axis views were obtained during each echocardiographic examination and image measurements were performed offline by an investigator blinded to animal groups and the cell types/PBS injections.

[3] = patients receiving G-CSF; cited from earlier work
MPO-EL = test: MPO immunoprecipitation and western blot with E-selectin-Ig chimera / anti-MPO 3D3; type: cell-based, human
Procedure: G-CSF induces MPO-EL expression in myeloid cells in vitro. To directly assess whether G-CSF stimulates expression of MPO-EL, freshly obtained BM, NL and ML were placed in culture and treated for 48 hours with human G-CSF at 10 ng/ml, a dose reflecting physiologic concentrations of G-CSF following in vivo administration^21,37. MPO was immunoprecipitated from equivalent cell numbers of BM, NL and ML, then resolved on SDS-PAGE and blotted with an anti-MPO Ab which predominantly recognizes the heavy chain (clone 3D3) (FIG. 4d); blots were then stripped and stained with E-Ig (FIG. 4e).
Immunoprecipitations, SDS-PAGE and Western Blotting. Leukocytes were lysed in Buffer A (0.5 mM Tris, pH=8, 150 mM NaCl, 20 μg/ml PMSF, 0.02% sodium azide) supplemented with 1% Triton (Sigma-Aldrich, St. Louis, Mo.) and protease inhibitor cocktail (Roche Diagnostics GmbH, Mannheim, Germany). Cell lysates were precleared with rProtein G Agarose beads (Invitrogen, Carlsbad, Calif.). Immunoprecipitations were performed at 4° C. for 16 h, by incubating the precleared lysates with 2 μg antibody and a fresh batch of agarose beads blocked in advance with 1 mg/ml bovine serum albumin (Sigma-Aldrich, St. Louis, Mo.). After extensive washes, the beads were boiled with sample buffer and the released antigens or cell lysates were resolved on 7.5% Tris-HCl SDS-PAGE (Criterion™ Precast Gel, Bio-Rad Laboratories, Hercules, Calif.). In western blot experiments separated proteins were transferred to Sequi-Blot™PVDF Membrane (Bio-Rad Laboratories, Hercules, Calif.) which was blocked for 2 h with a solution of 5% Non-Fat Milk (LabScientific, Livingston, N.J.). Proteins were detected with E-selectin-Ig chimera or with anti-MPO mAb: clone 2C7 (Abcam) and clone 3D3 (a generous gift from Carrie Rice at Maine Biotechnology Services, ME). Secondary antibodies goat anti-human IgG and goat anti-mouse IgG, HRP-conjugated were detected with Lumi-Light Western Blotting Substrate, (Roche Diagnostics GmbH, Mannheim, Germany).
In vitro G-CSF treatment. […]

With `OC[C@H]1NC[C@@H](O)[C@@H](O)[C@@H]1O` [DMJ, deoxymannojirimycin, reference compound] as the molecule, how does the “G-CSF-induced expression of HECA-452-reactive glycans” value ([1]; NA-treated BM cells cultured 48 h with G-CSF in presence of 1 mM DMJ) read?
The value was “markedly diminished”.

And the “G-CSF-induced MPO expression” value (membrane MPO; NA-treated BM cells, G-CSF in presence of 1 mM DMJ, 48 h)?
Its value is “significantly attenuated”.

And the “induction of surface enzymatic activity” value (surface MPO; DMJ added to G-CSF-treated NL)?
The value was “prevented induction of surface enzymatic activity”.

And the G-CSF-induced angiotoxicity (TNF-α-stimulated HUVEC; NL treated with G-CSF and DMJ together)?
Its G-CSF-induced angiotoxicity is “prevented G-CSF-induced angiotoxicity”.

Which ejection fraction [2] does the source give for “sialidase: Vibrio Cholerae neuraminidase used to cleave terminal sialic acid from sLex [reference compound]” here?
The ejection fraction was “improved ejection fraction”.

What about the MPO expression (membrane MPO; BM cells treated with NA, cultured 48 h) of the same molecule?
The MPO expression was “did not induce MPO expression”.

What about the endothelial cell death (TNF-α-stimulated HUVEC; TNF-α-stimulated HUVEC in absence of leukocytes (baseline)) of the same molecule?
Its endothelial cell death is “no effect”.

And the endothelial cell death (TNF-α-stimulated HUVEC; co-culture with sialidase-treated ML compared to untreated ML)?
The endothelial cell death was “significantly decreased”.

B1: Granulocyte colony-stimulating factor (protein, chains of the INN, looked up)
chain: MTPLGPASSLPQSFLLKCLEQVRKIQGDGAALQEKLCATYKLCHPEELVLLGHSLGIPWAPLSSCPSQALQLAGCLSQLHSGLFLYQGLLQALEGISPELGPTLDTLQLDVADFATTIWQQMEELGMAPALQPTQGAMPAFASAFQRRAGGVLVASHLQSFLEVSYRVLRHLAQP
What does the source list for B1?
cutaneous leukocytoclastic vasculitis, patients affected [3]: ≤ 6%; HECA452-reactive glycans ([1]; ML treated ex vivo with G-CSF): only modest increases; expression of HECA-452 determinants ([1]; NA-treated BM cells incubated with G-CSF vs without G-CSF, 48 h): marked increased expression; HECA452-reactive glycans ([1]; NL and BM treated ex vivo with G-CSF): significant increase; MPO membrane expression (membrane MPO; ML treated ex vivo with G-CSF): only modestly increased; expression of surface MPO (membrane MPO; NL and BM cells treated ex vivo with G-CSF): dramatically increased; cell surface MPO enzymatic (peroxidase) activity (surface MPO; NL cultured with 10 ng/ml G-CSF for 48 hours): induced surface peroxidase activity; angiotoxicity (TNF-α-stimulated HUVEC; G-CSF-treated ML compared to untreated ML): no significant increase in angiotoxicity; endothelial cell death (cytotoxic effect) (TNF-α-stimulated HUVEC; G-CSF-treated NL or BM compared to untreated NL or BM cells): enhanced cytotoxic effect; also recorded: markedly increased; MPO-EL expression (MPO-EL; BM and NL, 10 ng/ml G-CSF, 48 hours): markedly induces; MPO quantity (MPO-EL; BM and NL, 10 ng/ml G-CSF, 48 hours, anti-MPO 3D3 blot): without significant increase; MPO-EL expression (MPO-EL; ML, ex vivo exposure to G-CSF): did not further increase
